The values that follow are results of earlier work, collected in PMC4618177.

Like-named read-outs stand apart in the source and are kept apart here.

The target in series [1] is IAA17 PB1 (Arabidopsis thaliana) (UniProt P93830).
The target in series [2] is ARF5 PB1 (Arabidopsis thaliana) (UniProt P93024).
The target of series [3] is IAA17 PB1 (Arabidopsis thaliana) (UniProt P93830). This is another data set of the same source.

Usually Kd stands for the equilibrium constant for the complex coming apart. Turning to IAA17 PB1 (from UniProt P93830), in series [1], the Kd is 6600 nM.

For the substance ARF5 PB1 (from UniProt P93024), the dissociation constant (Kd) is 860 nM in series [2] and 73 nM in series [3].
